Reference: article PMC9482650, “Quantitative fragmentomics allow affinity mapping of interactomes” (Nature Communications, 2022)

T1: PDZD8, Q8NEN9
T1 sequence (Q8NEN9 361-459, limits assumed, looked up): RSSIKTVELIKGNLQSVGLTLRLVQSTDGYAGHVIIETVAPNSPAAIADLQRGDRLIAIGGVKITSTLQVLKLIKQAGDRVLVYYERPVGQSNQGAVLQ

T2: DVL1, O14640
T2 sequence (O14640 246-333, limits assumed, looked up): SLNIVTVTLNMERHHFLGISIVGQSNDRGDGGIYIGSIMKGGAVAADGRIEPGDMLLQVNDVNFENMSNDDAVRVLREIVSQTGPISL

T3: PARD6G, Q9BYG4
T3 sequence (Q9BYG4 153-261, limits assumed, looked up): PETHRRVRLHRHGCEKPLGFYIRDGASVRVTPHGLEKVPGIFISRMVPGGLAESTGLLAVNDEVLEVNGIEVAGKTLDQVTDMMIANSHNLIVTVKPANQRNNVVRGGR

T4: MPDZ_11, O75970
T4 sequence (O75970 1720-1817, limits assumed, looked up): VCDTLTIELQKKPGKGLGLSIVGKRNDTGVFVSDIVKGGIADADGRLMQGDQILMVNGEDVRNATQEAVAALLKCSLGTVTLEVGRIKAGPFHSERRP

T5: PTPN13_5, Q12923
T5 sequence (Q12923 1877-1975, limits assumed, looked up): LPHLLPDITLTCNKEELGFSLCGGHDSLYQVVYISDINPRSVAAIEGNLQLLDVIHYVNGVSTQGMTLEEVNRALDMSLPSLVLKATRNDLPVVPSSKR

T6: SIPA1L3, O60292
T6 sequence (O60292 961-1052, limits assumed, looked up): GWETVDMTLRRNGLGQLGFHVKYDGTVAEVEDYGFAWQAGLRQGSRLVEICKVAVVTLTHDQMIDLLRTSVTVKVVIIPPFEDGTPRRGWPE

T7: MPDZ_7, O75970
T7 sequence (O75970 1146-1253, limits assumed, looked up): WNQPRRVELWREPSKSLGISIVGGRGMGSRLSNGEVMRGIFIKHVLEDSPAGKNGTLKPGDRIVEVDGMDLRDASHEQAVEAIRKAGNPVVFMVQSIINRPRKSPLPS

T8: TIAM2, Q8IVF5
T8 sequence (Q8IVF5 885-986, limits assumed, looked up): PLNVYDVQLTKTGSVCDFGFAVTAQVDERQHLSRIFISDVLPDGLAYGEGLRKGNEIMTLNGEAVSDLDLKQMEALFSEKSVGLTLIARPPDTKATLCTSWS

T9: PDZD2_1, O15018
T9 sequence (O15018 80-192, limits assumed, looked up): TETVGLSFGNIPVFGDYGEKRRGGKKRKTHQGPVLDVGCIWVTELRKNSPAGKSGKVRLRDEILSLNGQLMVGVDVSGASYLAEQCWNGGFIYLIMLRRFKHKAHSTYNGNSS

T10: NHERF1_2, O14745
T10 sequence (O14745 149-244, limits assumed, looked up): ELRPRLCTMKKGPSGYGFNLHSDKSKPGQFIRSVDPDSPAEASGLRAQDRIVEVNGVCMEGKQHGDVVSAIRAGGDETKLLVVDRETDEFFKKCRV

T11: SHROOM4, Q9ULL8
T11 sequence (Q9ULL8 5-102, limits assumed, looked up): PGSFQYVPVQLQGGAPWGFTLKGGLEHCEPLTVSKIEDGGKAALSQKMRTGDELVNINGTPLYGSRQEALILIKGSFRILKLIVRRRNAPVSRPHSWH


Assays:
Test in all cases: holdup assay
Design in all cases: key: below the threshold = too weak to quantify, mostly under pKd 3.1 to 4
Settings in all cases: plain residues with an end cap or a label only (N-terminal biotin on a linker: ttds)
TJP1_1, Q07157 = target: TJP1_1, Q07157
PDZD8, Q8NEN9 = target: T1, PDZD8, Q8NEN9
DVL2, O14641 = target: DVL2, O14641
FRMPD2_1, Q68DX3 = target: FRMPD2_1, Q68DX3
DVL1, O14640 = target: T2, DVL1, O14640
MAST2, Q6P0Q8 = target: MAST2, Q6P0Q8
PARD3_1, Q8TEW0 = target: PARD3_1, Q8TEW0
PARD6G, Q9BYG4 = target: T3, PARD6G, Q9BYG4
GIPC3, Q8TF64 = target: GIPC3, Q8TF64
MPDZ_11, O75970 = target: T4, MPDZ_11, O75970
PTPN13_5, Q12923 = target: T5, PTPN13_5, Q12923
SIPA1L3, O60292 = target: T6, SIPA1L3, O60292
RIMS2, Q9UQ26 = target: RIMS2, Q9UQ26
SDCBP_1, O00560 = target: SDCBP_1, O00560
GRIP2_2, Q9C0E4 = target: GRIP2_2, Q9C0E4
DLG2_1, Q15700 = target: DLG2_1, Q15700
MAGI3_6, Q5TCQ9 = target: MAGI3_6, Q5TCQ9
MPDZ_7, O75970 = target: T7, MPDZ_7, O75970
TIAM2, Q8IVF5 = target: T8, TIAM2, Q8IVF5
PDZD2_1, O15018 = target: T9, PDZD2_1, O15018
MAGIX, Q9H6Y5 = target: MAGIX, Q9H6Y5
NHERF1_2, O14745 = target: T10, NHERF1_2, O14745
Inadl_7, Q8NI35 = target: Inadl_7, Q8NI35
RGS3, P49796-9 = target: RGS3, P49796-9
SHROOM4, Q9ULL8 = target: T11, SHROOM4, Q9ULL8
NHERF4_3, Q86UT5 = target: NHERF4_3, Q86UT5
Sequence of NHERF4_3, Q86UT5 (Q86UT5 325-412): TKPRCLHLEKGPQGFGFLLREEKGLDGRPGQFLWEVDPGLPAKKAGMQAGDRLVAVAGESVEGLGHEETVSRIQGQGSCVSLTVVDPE

Sequence of FRMPD2_1, Q68DX3 (Q68DX3 770-861): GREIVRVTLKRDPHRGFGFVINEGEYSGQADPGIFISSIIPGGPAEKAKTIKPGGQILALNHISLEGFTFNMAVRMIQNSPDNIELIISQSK
Sequence of TJP1_1, Q07157 (Q07157 18-120): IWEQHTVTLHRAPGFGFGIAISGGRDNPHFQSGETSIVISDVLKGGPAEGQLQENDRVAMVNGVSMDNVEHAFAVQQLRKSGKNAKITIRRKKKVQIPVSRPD
Sequence of RGS3, P49796-9 (P49796 other isoform, or with tags, fused parts or gaps): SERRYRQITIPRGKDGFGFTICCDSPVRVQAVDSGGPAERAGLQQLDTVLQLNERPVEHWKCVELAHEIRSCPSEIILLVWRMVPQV
Sequence of PARD3_1, Q8TEW0 (Q8TEW0 264-372): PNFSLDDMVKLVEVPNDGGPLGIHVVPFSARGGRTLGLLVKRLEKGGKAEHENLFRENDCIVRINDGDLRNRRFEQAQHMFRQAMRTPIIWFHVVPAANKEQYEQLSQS
Sequence of RIMS2, Q9UQ26 (Q9UQ26 637-758): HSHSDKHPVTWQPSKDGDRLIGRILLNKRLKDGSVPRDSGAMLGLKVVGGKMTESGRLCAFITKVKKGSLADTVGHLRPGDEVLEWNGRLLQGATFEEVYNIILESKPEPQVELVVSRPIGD
Sequence of GRIP2_2, Q9C0E4 (Q9C0E4 137-245): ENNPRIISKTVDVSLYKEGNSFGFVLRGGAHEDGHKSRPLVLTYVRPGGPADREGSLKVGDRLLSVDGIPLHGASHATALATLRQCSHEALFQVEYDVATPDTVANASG
Sequence of Inadl_7, Q8NI35 (Q8NI35 1219-1332): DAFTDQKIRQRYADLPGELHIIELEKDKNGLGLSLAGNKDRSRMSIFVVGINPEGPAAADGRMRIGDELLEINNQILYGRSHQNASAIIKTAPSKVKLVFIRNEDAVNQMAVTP
Sequence of GIPC3, Q8TF64 (Q8TF64 107-202): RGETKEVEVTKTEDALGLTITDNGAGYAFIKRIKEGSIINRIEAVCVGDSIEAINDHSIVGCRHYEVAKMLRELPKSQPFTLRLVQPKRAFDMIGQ
Sequence of MAST2, Q6P0Q8 (Q6P0Q8 1099-1202): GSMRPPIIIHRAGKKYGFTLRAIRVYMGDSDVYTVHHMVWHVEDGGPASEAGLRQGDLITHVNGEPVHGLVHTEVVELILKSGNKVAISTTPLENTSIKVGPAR
Sequence of SDCBP_1, O00560 (O00560 111-198): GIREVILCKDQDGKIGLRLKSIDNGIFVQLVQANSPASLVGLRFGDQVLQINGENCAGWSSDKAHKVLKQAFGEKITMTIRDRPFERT
Sequence of DVL2, O14641 (O14641 260-359): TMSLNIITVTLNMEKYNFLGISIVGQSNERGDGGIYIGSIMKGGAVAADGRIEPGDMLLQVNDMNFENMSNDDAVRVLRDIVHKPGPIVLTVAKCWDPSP
Sequence of MAGI3_6, Q5TCQ9 (Q5TCQ9 1014-1103): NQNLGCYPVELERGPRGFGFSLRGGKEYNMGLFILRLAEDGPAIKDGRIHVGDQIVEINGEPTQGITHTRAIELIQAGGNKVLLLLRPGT
Sequence of MAGIX, Q9H6Y5 (Q9H6Y5 118-211): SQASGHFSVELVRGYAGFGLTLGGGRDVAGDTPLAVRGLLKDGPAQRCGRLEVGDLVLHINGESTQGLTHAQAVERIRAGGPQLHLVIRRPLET

Row | Binder | pKd (TJP1_1, Q07157) | pKd (PDZD8, Q8NEN9) | pKd (DVL2, O14641) | pKd (FRMPD2_1, Q68DX3) | pKd (DVL1, O14640) | pKd (MAST2, Q6P0Q8) | pKd (PARD3_1, Q8TEW0) | pKd (PARD6G, Q9BYG4) | pKd (MPDZ_11, O75970) | pKd (PTPN13_5, Q12923) | pKd (SIPA1L3, O60292) | pKd (RIMS2, Q9UQ26) | pKd (SDCBP_1, O00560) | pKd (DLG2_1, Q15700) | pKd (MAGI3_6, Q5TCQ9) | pKd (MPDZ_7, O75970) | pKd (TIAM2, Q8IVF5) | pKd (PDZD2_1, O15018) | pKd (MAGIX, Q9H6Y5) | pKd (NHERF1_2, O14745) | other results
1 | SSIDLWETAL [SLC15A5, A6NIM6] | below the threshold | below the threshold | below the threshold | below the threshold | below the threshold | 5.44 | below the threshold | below the threshold | below the threshold | 4.86 | below the threshold | below the threshold | below the threshold | below the threshold | 4.89 | 6.09 | below the threshold | below the threshold | below the threshold | below the threshold | pKd (GIPC3, Q8TF64): below the threshold; pKd (GRIP2_2, Q9C0E4): below the threshold; pKd (Inadl_7, Q8NI35): below the threshold; pKd (RGS3, P49796-9): below the threshold; pKd (SHROOM4, Q9ULL8): below the threshold; pKd (NHERF4_3, Q86UT5): below the threshold
2 | SHSSKGETAV [FZD7, O75084] | below the threshold | below the threshold | below the threshold | 3.8 | below the threshold | 5.09 | below the threshold | below the threshold | below the threshold | below the threshold | below the threshold | below the threshold | below the threshold | 4.38 | 4.71 | below the threshold | below the threshold | below the threshold | below the threshold | below the threshold | pKd (GIPC3, Q8TF64): below the threshold; pKd (GRIP2_2, Q9C0E4): 4.49; pKd (Inadl_7, Q8NI35): 4.99; pKd (RGS3, P49796-9): below the threshold; pKd (SHROOM4, Q9ULL8): below the threshold; pKd (NHERF4_3, Q86UT5): below the threshold
3 | SRSRRRETAL [HPV33-E6, P06427] | below the threshold | below the threshold | below the threshold | 3.54 | 4.23 | 5.37 | below the threshold | below the threshold | below the threshold | below the threshold | below the threshold | below the threshold | below the threshold | 5.13 | below the threshold | below the threshold | below the threshold | below the threshold | below the threshold | below the threshold | pKd (GIPC3, Q8TF64): below the threshold; pKd (GRIP2_2, Q9C0E4): below the threshold; pKd (Inadl_7, Q8NI35): below the threshold; pKd (RGS3, P49796-9): below the threshold; pKd (SHROOM4, Q9ULL8): below the threshold; pKd (NHERF4_3, Q86UT5): below the threshold
4 | PPRQRSETQV [HPV82-E6, Q9IR59] | below the threshold | below the threshold | below the threshold | 3.5 | below the threshold | 5.18 | below the threshold | below the threshold | below the threshold | below the threshold | below the threshold | below the threshold | below the threshold | 4.32 | below the threshold | below the threshold | below the threshold | below the threshold | below the threshold | below the threshold | pKd (GIPC3, Q8TF64): below the threshold; pKd (GRIP2_2, Q9C0E4): below the threshold; pKd (Inadl_7, Q8NI35): below the threshold; pKd (RGS3, P49796-9): below the threshold; pKd (SHROOM4, Q9ULL8): below the threshold; pKd (NHERF4_3, Q86UT5): below the threshold
5 | SGGKRKETLV [NET1, Q7Z628] | 3.89 | below the threshold | below the threshold | 3.95 | below the threshold | 4.49 | below the threshold | below the threshold | 3.72 | below the threshold | below the threshold | below the threshold | below the threshold | 4.87 | below the threshold | 4.35 | below the threshold | below the threshold | below the threshold | below the threshold | pKd (Inadl_7, Q8NI35): below the threshold; pKd (RGS3, P49796-9): below the threshold; pKd (SHROOM4, Q9ULL8): below the threshold; pKd (NHERF4_3, Q86UT5): below the threshold
